The subject of data set [1] is DR1, DR2, DR4, DR5, DRw6, DR7 and DR9 molecules. The settings on record: cited from earlier work.
The format of data set [2] is physicochemical. The settings on record: DLS at pH 6.5.
Data set [3] is described as follows: analytical ultracentrifugation of SAPN. It is filed as physicochemical. The settings on record: for MW / No. of monomers: SAPN. Here is the method: Three conditions were tested for assembling nanoparticles from the monomeric building block SEQ ID NO:33. The molecular weight (MW) of the SAPN was assessed by analytical ultracentrifugation: The peptide was dissolved at 0.42 mg/ml, 0.34 mg/ml, and 0.21 mg/ml, in 150 mM NaCl, 20 mM Tris, pH 7.5. The measured MW corresponds to SAPN composed of about 330 monomers, i.e. a nanoparticle with more monomers than needed for a regular polyhedron with 60 asymmetric units (Table 23).

The mark [4] stands for this setting: peptide 0.21 mg/ml in 150 mM NaCl, 20 mM Tris, pH 7.5.
[5] abbreviates: peptide 0.34 mg/ml in 150 mM NaCl, 20 mM Tris, pH 7.5.
The mark [6] stands for this setting: peptide 0.42 mg/ml in 150 mM NaCl, 20 mM Tris, pH 7.5.

For the molecule “CS.T3 peptide: 17 C-terminal amino acids of P. falciparum circum sporozoite protein CS with two cysteines replaced by alanines (RLLLRLEELERRLEELEKKIAKMEKASSVFNVVLAALRRRLEELAR; trimeric coiled coil with P. falciparum HTL epitope)”, the “pan DR activity in cell proliferation assay” value in data set [1] is given as “stimulatory”.

B1: MGHHHHHHASWKWDGGLVPRGSWQTWNAKWDQWSNDWNAWRSDWQAWKDDWAFWRALWMGGRLLLRLEELERRLEELEKKIAKMEKASSVFNVVLAALRRRLEELARGGSGANANPNANPNANPNANP (protein)
chain: MGHHHHHHASWKWDGGLVPRGSWQTWNAKWDQWSNDWNAWRSDWQAWKDDWAFWRALWMGGRLLLRLEELERRLEELEKKIAKMEKASSVFNVVLAALRRRLEELARGGSGANANPNANPNANPNANP
modifications: pentameric coiled coil with tryptophane zipper and trimeric coiled coil with P. falciparum HTL epitope
B1: in data set [2], the particle diameter is recorded as 44.6 nm and the polydispersity index was 19.6%.

B2: MGHHHHHHGDWKWDGGLVPRGSDEMLRELQETNAALQDVRELLRQQVKQITFLRALLMGGRLLARLEELERRLEELERRLEELERAINTVDLELAALRRRLEELAR (protein)
chain: MGHHHHHHGDWKWDGGLVPRGSDEMLRELQETNAALQDVRELLRQQVKQITFLRALLMGGRLLARLEELERRLEELERRLEELERAINTVDLELAALRRRLEELAR
modifications: building block comprising His-tag, COMP and P5c6
As for B2, the “molecular weight of the SAPN” value in data set [3] (analytical ultracentrifugation) is “about 4 MD”. In addition, the “number of monomers (peptide chains) per SAPN” value in data set [3] (from measured MW, 150 mM NaCl, 20 mM Tris, pH 7.5) is listed as “about 330”.

B3: SEQ ID NO: 33 (protein)
chain: MGHHHHHHGDWKWDGGLVPRGSDEMLRELQETNAALQDVRELLRQQVKQITFLRALLMGGRLLARLEELERRLEELERRLEELERAINTVDLELAALRRRLEELAR
modifications: building block comprising His-tag, COMP and P5c6
In the case of B3, the results for the MW in data set [3] (setting [4]), in data set [3] (setting [5]) and in data set [3] (setting [6]) were 4066 kDa, 4128 kDa and 4331 kDa, respectively. Also, the No. of monomers in data set [3] (setting [4]) worked out at 323; in data set [3] (setting [5]), 328; in data set [3] (setting [6]) it was 344.

(Values after US8546337B2, “Self-assembling peptide nanoparticles useful as vaccines” (Alpha-O-Peptides AG, priority 2008, dated 2013).)
